According to article PMC7925178:

How the values were obtained:
[1] = target: AMC009 SOSIP.v5.2 trimer (HIV-1 (subtype B)); experiment: native gel or EMSA
[2] = target: AMC009 SOSIP.v5.2 trimer (HIV-1 (subtype B)); experiment: negative-stain electron microscopy; NS-EM, reference-free 2D class averages of purified SOSIP trimers; percent native-like trimers
[3] = target: AMC011 SOSIP.v4.2 trimer (HIV-1 (subtype B)); experiment: native gel or EMSA
[4] = target: AMC011 SOSIP.v5.2 trimer (HIV-1 (subtype B)); experiment: native gel or EMSA
[5] = target: AMC011 SOSIP.v5.2 trimer (HIV-1 (subtype B)); experiment: negative-stain electron microscopy; NS-EM, reference-free 2D class averages of purified SOSIP trimers; percent native-like trimers
[6] = target: AMC009 SOSIP.v4.2-D7324 trimer (HIV-1 (subtype B)); experiment: as above

**Q.** Which results are given for AMC009 SOSIP.v5.2 trimer (complex)?
**A.** stoichiometry N [1]: 3; % native-like trimers [2]: 100%

**Q.** AMC011 SOSIP.v4.2 trimer (complex) was tested. Which stoichiometry N [3] did it give?
**A.** 3

**Q.** For AMC011 SOSIP.v5.2 trimer (complex), which stoichiometry N [4] is on record?
**A.** 3

**Q.** And the % native-like trimers [5]?
**A.** 100%

**Q.** How did the % native-like trimers [6] turn out when “AMC009 SOSIP.v4.2-D7324 trimer (complex)” was run?
**A.** 100%
